Assay results taken from article PMC3420917, “A Combinatorial Amino Acid Code for RNA Recognition by Pentatricopeptide Repeat Proteins” (PLoS Genetics, 2012).
Where a chain is given by its changes, count along the chain named.

B1: UU RNA (ssRNA)
RNA: GUAUUCUUAACCAUUUC
B2: CC RNA (ssRNA)
RNA: GUACCCUUAACCAUUUC
B3: PPR10 17-nt minimal RNA ligand (ssRNA)
RNA: GUAUCCUUAACCAUUUC

How the values were obtained:
PPR10 ND variant = target: T1, PPR10 ND variant (maize, UniProt B8Y6I0 96-786, N349D); assay: EMSA; EMSA: radiolabeled RNA 15 pM, protein 0, 5, 10, 20 nM; binding buffer and temperature by reference [12]; protein stock in 400 mM NaCl, 50 mM Tris-HCl pH 7.5, 5; conditions: protein: recombinant; tags: MBP fusion removed by TEV cleavage; label: radiolabeled; single-stranded
T1 sequence: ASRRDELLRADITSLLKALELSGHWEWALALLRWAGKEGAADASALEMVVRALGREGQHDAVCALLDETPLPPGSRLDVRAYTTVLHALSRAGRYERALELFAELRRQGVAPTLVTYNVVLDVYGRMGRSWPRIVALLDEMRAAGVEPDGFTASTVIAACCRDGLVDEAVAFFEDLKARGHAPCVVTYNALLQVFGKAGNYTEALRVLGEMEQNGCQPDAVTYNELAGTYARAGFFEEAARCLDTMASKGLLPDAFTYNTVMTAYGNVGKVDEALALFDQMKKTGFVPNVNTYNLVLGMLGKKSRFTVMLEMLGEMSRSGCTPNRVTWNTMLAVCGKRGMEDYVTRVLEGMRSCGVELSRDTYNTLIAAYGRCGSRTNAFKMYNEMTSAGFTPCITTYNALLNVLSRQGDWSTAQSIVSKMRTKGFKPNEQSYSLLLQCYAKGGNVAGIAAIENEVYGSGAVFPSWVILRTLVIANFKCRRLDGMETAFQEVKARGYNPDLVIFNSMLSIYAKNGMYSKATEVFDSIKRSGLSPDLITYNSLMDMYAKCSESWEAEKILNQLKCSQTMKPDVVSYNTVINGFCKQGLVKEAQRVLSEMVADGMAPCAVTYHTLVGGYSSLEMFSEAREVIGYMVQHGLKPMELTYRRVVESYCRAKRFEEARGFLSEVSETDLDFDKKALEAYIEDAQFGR

PPR10 NS variant = target: T2, PPR10 NS variant (maize, UniProt B8Y6I0 96-786, D314S;N349S); assay: as above; conditions: protein: recombinant; tags: MBP fusion removed by TEV cleavage; label: radiolabeled; single-stranded
T2 sequence: T1 sequence with D219S, D254S

PPR10 NN variant [1] = target: T3, PPR10 NN variant (maize, UniProt B8Y6I0 96-786, D314N); assay: EMSA; affinity similar to CC RNA; EMSA: radiolabeled RNA 15 pM, protein 0, 5, 10, 20 nM; binding buffer and temperature by reference [12]; protein stock in 400 mM NaCl, 50 mM Tris-HCl pH 7.5, 5; conditions: protein: recombinant; tags: MBP fusion removed by TEV cleavage; label: radiolabeled; single-stranded
T3 sequence: T1 sequence with D219N, D254N

PPR10 NN variant [2] = target: T3, PPR10 NN variant; assay: EMSA; affinity similar to UU RNA; EMSA: radiolabeled RNA 15 pM, protein 0, 5, 10, 20 nM; binding buffer and temperature by reference [12]; protein stock in 400 mM NaCl, 50 mM Tris-HCl pH 7.5, 5; conditions: protein: recombinant; tags: MBP fusion removed by TEV cleavage; label: radiolabeled; single-stranded
rPPR10 wild-type = target: T4, rPPR10 wild-type (maize, UniProt B8Y6I0 96-786); assay: SV-AUC; 3 uM protein, 1.5 or 3 uM RNA; 1:1 monomer complex; EMSA: radiolabeled RNA 15 pM, protein 0, 5, 10, 20 nM; binding buffer and temperature by reference [12]; protein stock in 400 mM NaCl, 50 mM Tris-HCl pH 7.5, 5; conditions: protein: recombinant; tags: MBP fusion removed by TEV cleavage; single-stranded
T4 sequence: T1 sequence with D254N

Binder	Kd (PPR10 ND variant) [nM]	Kd (PPR10 NS variant) [nM]	binding result (PPR10 NN variant [1])	binding result (PPR10 NN variant [2])	binding result (rPPR10 wild-type)
B1	~3	20	binds	–	–
B2	17	9	–	binds	–
B3	–	–	–	–	binds
